# In article PMC8145704 (Microorganisms, 2021):
# Ends that are not written are not given here.
# What was measured:
# Details in all cases: both partners purified
# [1] = molecular target: T1, WT-HBc capsids (hepatitis B core protein, genotype D; strain ayw; GenBank: V01460.1) (Hepatitis B virus (genotype D; strain …, UniProt P03146 1-183); experiment: peptide or protein array
# T1 construct: also called HBc-WT; HBc-CLPs; copies: 240
# [2] = molecular target: T1, WT-HBc capsids (hepatitis B core …); experiment: ITC
# [3] = molecular target: T2, P5T-HBc capsids (Hepatitis B virus (genotype D; strain …, UniProt P03146 1-183, P5T); experiment: cryo-EM structure
# T2 construct: copies: 240
# [4] = molecular target: T3, F97L-HBc capsids (Hepatitis B virus (genotype D; strain …, UniProt P03146 1-183, F97L); experiment: cryo-EM structure
# T3 construct: copies: 240
# [5] = molecular target: T4, L60V-HBc capsids (Hepatitis B virus (genotype D; strain …, UniProt P03146 1-183, L60V); experiment: cryo-EM structure
# T4 construct: copies: 240
# [6] = molecular target: T2, P5T-HBc capsids; experiment: ITC
# [7] = molecular target: T3, F97L-HBc capsids; experiment: ITC
# [8] = molecular target: T4, L60V-HBc capsids; experiment: ITC
binder,measurement,setting,value
GSLLGRMKGA (not fully specified (C-terminus)) [Peptide P2 “GSLLGRMKGA” on µSPOT peptide microarray],binding result,[1],binds
MHRSLLGRMKGA (source: synthetic peptide) [Peptide P1 “MHRSLLGRMKGA”],Kd,[2],26 µM
same,dH,[2],-9 kcal/mol
same,stoichiometry N,[2],0.45 peptide/HBc
same,binding result,[3],binds
same,binding result,[4],binds
same,binding result,[5],binds
"H-SLLGRM-NH2 (shortened stretch of P2; source: synthetic peptide (Fmoc solid-phase synthesis, HPLC purified)) [Peptide “SLLGRM” (core binding motif)]",Kd,[2],130 µM
same,dH,[2],-8.3 kcal/mol
same,stoichiometry N,[2],0.25 peptide/HBc
GSLLGRMKGA (source: synthetic peptide) [Peptide P2 “GSLLGRMKGA”],dH,[2],-14.4 kcal/mol
same,stoichiometry N,[2],0.48 peptide/HBc
same,dH,[6],-7.7 kcal/mol
same,stoichiometry N,[6],0.45 peptide/HBc
same,dH,[7],-9.9 kcal/mol
same,stoichiometry N,[7],0.52 peptide/HBc
same,dH,[8],-6.6 kcal/mol
same,stoichiometry N,[8],0.5 peptide/HBc
